Molecular target: Clostridioides difficile toxin A (Clostridioides difficile, strain not …, UniProt P16154)
Experiment: SPR
Conditions: both partners purified

B1: A26.8 VHH, wild-type (canonical Cys23-Cys104 disulfide linkage only) (VHH)
VHH: QVKLEESGGGLVQAGGSLRLSCAASERTFSRYPVAWFRQAPGAEREFVAVISSTGTSTYYADSVKGRFTISRDNAKVTVYLQMNNLKREDTAVYFCAVNSQRTRLQDPNEYDYWGQGTQVTVSS
Kd: 16.5 nM | koff: 0.0259 s⁻¹ | kon: 1.57e+06 M⁻¹ s⁻¹

B2: A26.8 VHH with engineered Cys22-Cys88 disulfide linkage (VHH)
VHH: QVKLEESGGGLVQAGGSLRLCCAASERTFSRYPVAWFRQAPGAEREFVAVISSTGTSTYYADSVKGRFTISRDNAKVTVCLQMNNLKREDTAVYFCAVNSQRTRLQDPNEYDYWGQGTQVTVSS
Kd: 18.7 nM | koff: 0.028 s⁻¹ | kon: 1.5e+06 M⁻¹ s⁻¹

B3: A26.8 VHH with engineered Cys24-Cys86 disulfide linkage (VHH)
VHH: QVKLEESGGGLVQAGGSLRLSCCASERTFSRYPVAWFRQAPGAEREFVAVISSTGTSTYYADSVKGRFTISRDNAKVCVYLQMNNLKREDTAVYFCAVNSQRTRLQDPNEYDYWGQGTQVTVSS
Kd: 43.6 nM | koff: 0.0271 s⁻¹ | kon: 621000 M⁻¹ s⁻¹

B4: A26.8 VHH with engineered Cys4-Cys25 disulfide linkage (VHH)
VHH: QVKCEESGGGLVQAGGSLRLSCACSERTFSRYPVAWFRQAPGAEREFVAVISSTGTSTYYADSVKGRFTISRDNAKVTVYLQMNNLKREDTAVYFCAVNSQRTRLQDPNEYDYWGQGTQVTVSS
Kd: 12.6 nM | koff: 0.062 s⁻¹ | kon: 4.93e+06 M⁻¹ s⁻¹

B5: A26.8 VHH with engineered Cys4-Cys118 pair (VHH)
VHH: QVKCEESGGGLVQAGGSLRLSCAASERTFSRYPVAWFRQAPGAEREFVAVISSTGTSTYYADSVKGRFTISRDNAKVTVYLQMNNLKREDTAVYFCAVNSQRTRLQDPNEYDYCGQGTQVTVSS
Kd: 43.4 nM

B6: A26.8 VHH with engineered Cys6-Cys119 disulfide linkage (VHH)
VHH: QVKLECSGGGLVQAGGSLRLSCAASERTFSRYPVAWFRQAPGAEREFVAVISSTGTSTYYADSVKGRFTISRDNAKVTVYLQMNNLKREDTAVYFCAVNSQRTRLQDPNEYDYWCQGTQVTVSS
Kd: 12.6 nM | koff: 0.0691 s⁻¹ | kon: 5.5e+06 M⁻¹ s⁻¹

From PMC10641266, “Sequence tolerance of immunoglobulin variable domain framework regions to noncanonical intradomain disulfide linkages” (The Journal of Biological Chemistry, 2023)
